The source of these data is US20190298830A1 (SUZHOU GALAXY BIOPHARMA, published 2019).

Test in all cases: cell-based or functional assay
In assay [1] the target is E2 envelope protein on HCV euvirus (HCVcc) particles, strain HK6a (6a) (Hepatitis C virus strain HK6a (6a)).
Assay [2] deals with E2 envelope protein on HCV euvirus (HCVcc) particles, strain PR52 (1b) (Hepatitis C virus strain PR52 (1b)).
For assay [3], the target named is E2 envelope protein on HCV euvirus (HCVcc) particles, strain PR26 (1b) (Hepatitis C virus strain PR26 (1b)).
Assay [4] addresses T1, E2 envelope protein on HCV euvirus (HCVcc) particles, strain JFH1 (2a) (Hepatitis C virus strain JFH1 (2a)).
Assay [5] deals with E2 envelope protein on HCV euvirus (HCVcc) particles, strain J8 (2b) (Hepatitis C virus strain J8 (2b)).
In assay [6] the target is T2, E2 envelope protein on HCV euvirus (HCVcc) particles, strain PR79 (1b) (Hepatitis C virus strain PR79 (1b)).
Assay [7] has as its target T3, E2 envelope protein on HCV euvirus (HCVcc) particles, strain D183 (2a) (Hepatitis C virus strain D183 (2a)).
Assay [8] addresses E2 envelope protein on HCV euvirus (HCVcc) particles, strain SA13 (5a) (Hepatitis C virus strain SA13 (5a)).
The target of assay [9] is E2 envelope protein on HCV euvirus (HCVcc) particles, strain PR63 (2a) (Hepatitis C virus strain PR63 (2a)).
The target in assay [10] is E2 envelope protein on HCV euvirus (HCVcc) particles, strain Con1 (1b) (Hepatitis C virus strain Con1 (1b)).
The target of assay [11] is E2 envelope protein on HCV euvirus (HCVcc) particles, strain S52 (3a) (Hepatitis C virus strain S52 (3a)).
Assay [12] deals with T1, E2 envelope protein on HCV euvirus …. This is another data set of the same source.
The target of assay [13] is T2, E2 envelope protein on HCV euvirus …. This is another data set of the same source.
The target in assay [14] is T3, E2 envelope protein on HCV euvirus …. This is another data set of the same source.
In assay [15] the target is E2 envelope protein on HCV euvirus particles, strain PR52B6M (1b) (Hepatitis C virus strain PR52B6M (1b)).

B1: human monoclonal antibody 8D6 (antibody, V domains shown)
VH: EVQLVQSGSELKKPGASLKLSCKASGYTYITPAMNWVRQAPGHGLEWMGGINTNTGNPTYAQGFAGRFVFSWDTSVSTAYLHISSLKTEDTAVYYCADTRIFSCRRGTCYGGFDVWGQGTMVTVSS
VL: DIQMTQSPSSLSASVGDRITITCRASQSISNFLNWFQHRPGKAPKLLIYGATILQSGVPSRFSGSGSGTDFTLTISSLQPEDFATYYCQQSDSSTYIFGQGTKVEIK
Regarding B1, the “IC50 (µg/ml), micro neutralization of HCV euvirus (NS5A-positive foci in Huh-7.5 cells)” value in [1] was 0.0015 µg/mL; in [2], below 0.08 µg/mL; in [3], 0.412 µg/mL; in assay [4], 0.003 µg/mL; in [5], 10 µg/mL; in assay [6], below 0.08 µg/mL. In addition, the “IC50 (µg/ml), micro neutralization of HCV euvirus (NS5A-positive foci in Huh-7.5 cells)” value was below 0.08 µg/mL in assay [7]; 0.087 µg/mL in [8]; below 0.016 µg/mL in assay [9]; 2.43 µg/mL in assay [10]; 0.01 µg/mL in assay [11]. For the same molecule, the “inhibition rate of HCV euvirus, at antibody concentration higher than 0.4 µg/ml” value in [12], in [13], in [14] and in [15] was above 90% each time.
